Data reported in US20100092465A1, “TREATMENT OF GRAFT-VERSUS-HOST DISEASE” (priority 2006, published 2010).
“And” between values parts separate entries of the source, which are not always exact repeats. Equal values may be shown once.

Assays:
huIL-27 = target: T1, huIL-27 (Homo sapiens, UniProt Q14213+Q8NEV9); experiment: Phospho-STAT3 neutralization assay, total human PBMCs, huIL-27; assay type: cell-based; settings: Total Human PBMCs; ligand huIL-27 at EC90
T1 sequence (Q14213 21-229): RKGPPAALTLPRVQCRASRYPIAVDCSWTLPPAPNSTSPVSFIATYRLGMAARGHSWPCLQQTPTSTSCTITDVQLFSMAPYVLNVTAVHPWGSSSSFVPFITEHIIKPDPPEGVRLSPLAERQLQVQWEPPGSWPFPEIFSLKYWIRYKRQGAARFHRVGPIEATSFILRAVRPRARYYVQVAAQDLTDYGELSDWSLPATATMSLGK
T1 sequence (Q8NEV9 29-243): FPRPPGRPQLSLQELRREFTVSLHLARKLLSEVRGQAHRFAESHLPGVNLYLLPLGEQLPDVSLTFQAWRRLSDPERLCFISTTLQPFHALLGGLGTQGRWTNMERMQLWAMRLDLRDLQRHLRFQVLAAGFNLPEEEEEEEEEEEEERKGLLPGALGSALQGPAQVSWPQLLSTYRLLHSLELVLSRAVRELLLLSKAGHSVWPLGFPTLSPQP
Text: Whole mouse spleens were harvested from C57 B1/6 mice and washed two times with 1×PBS before being plated out at 2×10^5 cells/well in assay media (RPMI 1640 plus 10% fetal bovine serum) in 96-well, round-bottom tissue culture plates. Total human PBMC (peripheral blood mononuclear cells) were thawed from a frozen vial collected from a leukapherisis donation and washed two times with 1×PBS before being plated out at 10^6 cells/well in assay media in 96-well, round-bottom tissue culture plates. […] Following pre-incubation, treatments were added to the plates containing the cells and incubated together at 37° C. for 15 minutes.
Following incubation, cells were washed with ice-cold wash buffer (BIO-PLEX Cell Lysis Kit, BIO-RAD Laboratories, Hercules, Calif.) and put on ice to stop the reaction according to manufacturer's instructions. […]
Capture beads (BIO-PLEX Phospho-Stat3 Assay, BIO-RAD Laboratories) were combined with 50 μL of 1:1 diluted lysates and added to a 96-well filter plate according to manufacture's instructions (BIO-PLEX Phosphoprotein Detection Kit, BIO-RAD Laboratories). […] After the final wash, beads were resuspended in 125 μL/well of bead suspension buffer, shaken for 30 seconds, and read on an array reader (BIO-PLEX, BIO-RAD Laboratories) according to the manufacture's instructions. Data were analyzed using analytical softward (BIO-PLEX MANAGER 3.0, BIO-RAD Laboratories). […]

mouse IL-27 = target: T2, mouse IL-27 (Mus musculus, UniProt O35228+Q8K3I6); experiment: IL-27 inhibition of IL-2 production neutralized by IL-27RA Fc; assay type: cell-based
T2 sequence (O35228+Q8K3I6 with tags, fused parts or gaps): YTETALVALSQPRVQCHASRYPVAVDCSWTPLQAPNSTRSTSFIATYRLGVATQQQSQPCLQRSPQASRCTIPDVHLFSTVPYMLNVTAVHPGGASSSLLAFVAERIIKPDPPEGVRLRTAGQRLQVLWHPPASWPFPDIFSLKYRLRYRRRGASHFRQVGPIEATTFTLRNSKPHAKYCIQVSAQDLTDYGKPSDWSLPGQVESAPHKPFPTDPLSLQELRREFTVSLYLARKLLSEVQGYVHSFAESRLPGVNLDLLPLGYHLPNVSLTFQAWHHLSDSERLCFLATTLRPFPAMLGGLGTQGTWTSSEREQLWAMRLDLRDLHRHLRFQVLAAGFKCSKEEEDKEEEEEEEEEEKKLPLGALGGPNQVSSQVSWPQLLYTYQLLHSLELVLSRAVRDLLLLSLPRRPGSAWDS
Method: For testing of the soluble receptor, single-chain mouse IL-27 (10 ng/ml) was preincubated for 30 minutes at 37 degrees C. with either IL27RAm(mFc1) (10.0 and 5.0 .micro.g/ml), IL27RA-Fc5, mouse Fc1 protein (10.0 and 5.0 .micro.g/ml), human Fc5 protein (10.0 and 5.0 .micro.g/ml), or no recombinant protein in wells of the anti-CD3 coated plates. 4×10^5 CD4^+ CD62L high cells were added to the wells. Duplicate plates were set up for all experimental conditions. The plates were then cultured at 37 degrees for up to 72 hours. Cell supernatants were collected from one set of plates at 48 hours and from the duplicate set of plates at 72 hours. The supernatants were stored frozen at −80° C.

## human IL-27RA-Fc5: human IL27RA extracellular domain (amino acids 1 to 512 of SEQ ID NO:5) fused to Fc5, effector minus human gamma1 Fc; SEQ ID NO:3
huIL-27
  IC50: 0.95 nM
Mouse IL-27; 48 hr, protein conc. 5 (µg/ml; Fc controls in molar equiv.) + IL-27 10 ng/ml
  IL-2 concentration: 5784.11 pg/mL
Mouse IL-27; 48 hr, protein conc. 10 (µg/ml; Fc controls in molar equiv.) + IL-27 10 ng/ml, listed as hIL-27RA
  IL-2 concentration: 5774.94 pg/mL and 5333.6 pg/mL
Mouse IL-27; 72 hr, protein conc. 5 (µg/ml; Fc controls in molar equiv.) + IL-27 10 ng/ml
  IL-2 concentration: 1869.62 pg/mL
Mouse IL-27; 72 hr, protein conc. 10 (µg/ml; Fc controls in molar equiv.) + IL-27 10 ng/ml, listed as hIL-27RA
  IL-2 concentration: 28607.63 pg/mL and 17481.17 pg/mL
Mouse IL-27; naïve CD4 T cells
  inhibition (partial block) of the ability of mouse IL-27 to inhibit IL-2 production: ~50%
